According to patent US20140087995A1 (published 2014):
Like-named read-outs stand apart in the source and are kept apart here. Numbered stars: 1 amine (or outer) side, 2 acyl side, 3 side chain; on linkers, the order of the positions; unused ones are H or OH. Bridge positions count the residues as written; N and C are the ends. Side chains are listed from the residue outwards. Ends that are not written are not given here. * marks the point of attachment. C20 diacid = O=C(O)CCCCCCCCCCCCCCCCCCC(=O)*; γGlu = O=C(O)[C@H](CCC(=O)[*:2])N[*:1]; AEEA = NCCOCCOCC(=O)O

T1: rat calcitonin receptor (rat, UniProt P32214 25-516)
T1 construct: whole, on cells; Membranes of BHK tk'ts 13 cells transiently transfected with the rat calcitonin receptor; also called rCTR; rat calcitonin (a) receptor
T1 sequence (looked up): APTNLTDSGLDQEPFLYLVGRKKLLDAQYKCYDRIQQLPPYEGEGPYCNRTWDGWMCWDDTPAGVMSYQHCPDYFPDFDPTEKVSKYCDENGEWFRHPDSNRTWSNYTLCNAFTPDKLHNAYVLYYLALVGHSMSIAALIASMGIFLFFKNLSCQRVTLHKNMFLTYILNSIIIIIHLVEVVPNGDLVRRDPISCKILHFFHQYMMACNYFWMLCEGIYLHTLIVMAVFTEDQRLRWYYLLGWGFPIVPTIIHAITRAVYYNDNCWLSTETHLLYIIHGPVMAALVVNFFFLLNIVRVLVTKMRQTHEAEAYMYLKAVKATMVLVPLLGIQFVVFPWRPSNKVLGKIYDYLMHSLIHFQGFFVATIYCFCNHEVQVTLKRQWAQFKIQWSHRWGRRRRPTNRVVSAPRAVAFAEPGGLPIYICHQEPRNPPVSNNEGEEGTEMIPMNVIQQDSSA

T2: human calcitonin receptor (human, UniProt P30988 25-474)
T2 construct: whole, on cells; Membranes of a BHK tk'ts 13 cell line stably transfected with the human calcitonin receptor; also called hCTR; hCT
T2 sequence (looked up): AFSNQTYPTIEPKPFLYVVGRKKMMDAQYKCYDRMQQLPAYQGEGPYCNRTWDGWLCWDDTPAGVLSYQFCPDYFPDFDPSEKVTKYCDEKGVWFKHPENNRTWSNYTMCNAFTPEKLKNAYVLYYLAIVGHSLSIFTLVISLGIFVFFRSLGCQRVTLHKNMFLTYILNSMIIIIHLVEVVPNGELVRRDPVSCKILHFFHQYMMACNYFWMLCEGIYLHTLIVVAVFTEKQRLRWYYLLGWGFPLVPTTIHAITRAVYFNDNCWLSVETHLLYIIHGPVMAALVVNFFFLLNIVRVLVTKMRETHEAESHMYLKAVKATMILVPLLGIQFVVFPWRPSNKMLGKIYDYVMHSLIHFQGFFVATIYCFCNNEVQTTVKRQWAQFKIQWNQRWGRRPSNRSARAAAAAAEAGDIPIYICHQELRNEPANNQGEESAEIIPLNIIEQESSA

T3: rat amylin receptor (rat calcitonin receptor + rat RAMP 3) (rat, UniProt P32214 25-516; Q9JJ73 23-147)
T3 construct: whole, on cells; Membranes of BHK tk'ts 13 cells transiently transfected with the rat calcitonin receptor and rat RAMP 3; also called rAmylin-R; rat amylin 3(a) receptor
T3 sequence (looked up) 1: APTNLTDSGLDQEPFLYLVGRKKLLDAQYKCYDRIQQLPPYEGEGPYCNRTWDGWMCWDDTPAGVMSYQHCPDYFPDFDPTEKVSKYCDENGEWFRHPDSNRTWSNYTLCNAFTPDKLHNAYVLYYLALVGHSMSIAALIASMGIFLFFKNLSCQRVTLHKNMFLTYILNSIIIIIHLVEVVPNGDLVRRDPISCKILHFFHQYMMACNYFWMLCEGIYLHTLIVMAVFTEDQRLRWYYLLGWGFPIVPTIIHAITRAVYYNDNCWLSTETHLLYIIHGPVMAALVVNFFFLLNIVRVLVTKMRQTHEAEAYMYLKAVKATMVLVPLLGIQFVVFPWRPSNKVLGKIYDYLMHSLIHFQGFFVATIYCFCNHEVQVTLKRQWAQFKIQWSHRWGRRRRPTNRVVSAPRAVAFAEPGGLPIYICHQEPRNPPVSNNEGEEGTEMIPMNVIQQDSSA
T3 sequence (looked up) 2: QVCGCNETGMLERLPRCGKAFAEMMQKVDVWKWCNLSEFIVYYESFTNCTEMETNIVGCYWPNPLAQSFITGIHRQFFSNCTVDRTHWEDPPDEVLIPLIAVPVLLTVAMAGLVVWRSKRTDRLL

T4: rat calcitonin receptor (rat, UniProt P32214 25-516)
T4 construct: whole, on cells; Cell membranes of transiently transfected BHK tk'ts 13 cells (Assay VIII); also called rCTR; rCT
T4 sequence (looked up): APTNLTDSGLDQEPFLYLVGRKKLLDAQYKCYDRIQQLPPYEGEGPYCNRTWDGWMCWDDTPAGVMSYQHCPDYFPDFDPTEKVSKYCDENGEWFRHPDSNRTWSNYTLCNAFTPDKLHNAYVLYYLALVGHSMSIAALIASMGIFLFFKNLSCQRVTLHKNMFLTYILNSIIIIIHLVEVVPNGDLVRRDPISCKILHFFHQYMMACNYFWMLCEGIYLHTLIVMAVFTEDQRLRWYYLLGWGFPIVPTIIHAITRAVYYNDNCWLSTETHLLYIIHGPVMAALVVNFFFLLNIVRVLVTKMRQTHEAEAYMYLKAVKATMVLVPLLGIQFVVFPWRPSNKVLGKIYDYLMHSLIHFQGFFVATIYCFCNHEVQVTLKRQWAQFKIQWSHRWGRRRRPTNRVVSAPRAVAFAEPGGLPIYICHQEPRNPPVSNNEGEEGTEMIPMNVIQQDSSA

T5: rat amylin receptor (rat calcitonin receptor + rat RAMP 3) (rat, UniProt P32214 25-516; Q9JJ73 23-147)
T5 construct: whole, on cells; Cell membranes of transiently transfected BHK tk'ts 13 cells (Assay VI); also called rAmylin-R; rat amylin 3(a) receptor
T5 sequence (looked up) 1: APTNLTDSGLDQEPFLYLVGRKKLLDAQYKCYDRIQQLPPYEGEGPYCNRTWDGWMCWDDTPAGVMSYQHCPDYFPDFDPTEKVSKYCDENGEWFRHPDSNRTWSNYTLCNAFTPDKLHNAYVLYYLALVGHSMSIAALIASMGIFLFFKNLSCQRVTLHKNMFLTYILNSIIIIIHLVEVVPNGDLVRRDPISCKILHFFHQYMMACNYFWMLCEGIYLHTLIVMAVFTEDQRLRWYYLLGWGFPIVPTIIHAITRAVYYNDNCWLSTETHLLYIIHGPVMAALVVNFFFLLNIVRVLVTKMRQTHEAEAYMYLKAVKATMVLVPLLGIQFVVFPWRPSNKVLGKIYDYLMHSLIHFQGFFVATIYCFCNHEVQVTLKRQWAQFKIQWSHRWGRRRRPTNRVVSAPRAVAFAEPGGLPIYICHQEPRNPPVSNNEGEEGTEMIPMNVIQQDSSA
T5 sequence (looked up) 2: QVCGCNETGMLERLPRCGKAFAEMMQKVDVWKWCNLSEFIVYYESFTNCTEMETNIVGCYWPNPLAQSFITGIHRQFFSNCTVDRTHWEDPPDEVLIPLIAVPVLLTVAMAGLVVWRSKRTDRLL


Tests used:
rat calcitonin receptor [1] = target: T1, rat calcitonin receptor; assay: SPA competition vs 125I-calcitonin, membranes with rat CTR (Assay VIII)
rat calcitonin receptor [2] = target: T1, rat calcitonin receptor; assay: IC50 at rCTR divided by IC50 at rAmylin-R (reference)
[3] = target: T2, human calcitonin receptor; assay: IC50 at hCTR divided by IC50 at hAmylin-R (reference)
Method in brief: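 Scintillation proximity competition binding on cell membranes at 35 ng/μL with SPA beads, in 50 mM Hepes pH 7.4, 1 mM CaCl2, 5 mM MgCl₂, 0.1% OA, 0.02% Tween20. Incubated 120 min at 25° C with shaking. IC₅₀ from one-site competition fit.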

[4] = target: T3, rat amylin receptor (rat calcitonin …); assay: SPA competition vs 125I-rat amylin, membranes with rat CTR + rat RAMP3 (Assay VI)
rat calcitonin receptor [5] = target: T4, rat calcitonin receptor; assay: SPA competition vs 125I-calcitonin, membranes with rat CTR (Assay VIII)
rat calcitonin receptor [6] = target: T4, rat calcitonin receptor; assay: ratio IC50 rat calcitonin receptor / IC50 rat amylin receptor
[7] = target: T5, rat amylin receptor (rat calcitonin …); assay: SPA competition vs 125I-rat amylin, membranes with rat CTR + rat RAMP3 (Assay VI)

Row | IC50 (rat calcitonin receptor [1]) [nM] | Ratio rCT/rAmylin binding (rat calcitonin receptor [2]) | Ratio hCT/hAmylin binding [3] | IC50 [4] [nM] | IC50 (rat calcitonin receptor [5]) [nM] | Ratio rCT/rAmylin binding (rat calcitonin receptor [6]) | IC50 [7] [nM] | Binder
1 | 46.8 | 142 | 48.9 | 0.33 |  |  |  | {C20 diacid-γGlu}-GRCNTATCATQRLANFLRHSSPNFGAIPSSTNVGSNTY-NH2 (disulfide 3-8; SMILES CC[C@H](C)[C@H](NC(=O)[C@H](C)NC(=O)CNC(=O)[C@H](Cc1ccccc1)NC(=O)[C@H](CC(N)=O)NC(=O)[C@@H]1CCCN1C(=O)[C@H](CO)NC(=O)[C@H](CO)NC(=O)[C@H](Cc1c[nH]cn1)NC(=O)[C@H](CCCNC(=N)N)NC(=O)[C@H](CC(C)C)NC(=O)[C@H](Cc1ccccc1)NC(=O)[C@H](CC(N)=O)NC(=O)[C@H](C)NC(=O)[C@H](CC(C)C)NC(=O)[C@H](CCCNC(=N)N)NC(=O)[C@H](CCC(N)=O)NC(=O)[C@@H](NC(=O)[C@H](C)NC(=O)[C@@H]1CSSC[C@H](NC(=O)[C@H](CCCNC(=N)N)NC(=O)CNC(=O)CC[C@H](NC(=O)CCCCCCCCCCCCCCCCCCC(=O)O)C(=O)O)C(=O)N[C@@H](CC(N)=O)C(=O)N[C@@H]([C@@H](C)O)C(=O)N[C@@H](C)C(=O)N[C@@H]([C@@H](C)O)C(=O)N1)[C@@H](C)O)C(=O)N1CCC[C@H]1C(=O)N[C@@H](CO)C(=O)N[C@@H](CO)C(=O)N[C@H](C(=O)N[C@@H](CC(N)=O)C(=O)N[C@H](C(=O)NCC(=O)N[C@@H](CO)C(=O)N[C@@H](CC(N)=O)C(=O)N[C@H](C(=O)N[C@@H](Cc1ccc(O)cc1)C(N)=O)[C@@H](C)O)C(C)C)[C@@H](C)O, modifications are with respect to human amylin; also called compound 46) [N^-1-[(4S)-4-carboxy-4-(19-carboxynonadecanoylamino)butanoyl]-Gly[Arg1,Arg17,Pro21,Pro27]-h-amylin]
2 | 41.8 | 67.1 | 26.8 | 0.623 |  |  |  | K([AEEA-γGlu-C20 diacid])RCNTATCATQRLANFLRHSSPNFGAIPSSTNVGSHTY-NH2 (disulfide 3-8; N-terminus assumed; SMILES CC[C@H](C)[C@H](NC(=O)[C@H](C)NC(=O)CNC(=O)[C@H](Cc1ccccc1)NC(=O)[C@H](CC(N)=O)NC(=O)[C@@H]1CCCN1C(=O)[C@H](CO)NC(=O)[C@H](CO)NC(=O)[C@H](Cc1c[nH]cn1)NC(=O)[C@H](CCCNC(=N)N)NC(=O)[C@H](CC(C)C)NC(=O)[C@H](Cc1ccccc1)NC(=O)[C@H](CC(N)=O)NC(=O)[C@H](C)NC(=O)[C@H](CC(C)C)NC(=O)[C@H](CCCNC(=N)N)NC(=O)[C@H](CCC(N)=O)NC(=O)[C@@H](NC(=O)[C@H](C)NC(=O)[C@@H]1CSSC[C@H](NC(=O)[C@H](CCCNC(=N)N)NC(=O)[C@@H](N)CCCCNC(=O)COCCOCCNC(=O)CC[C@H](NC(=O)CCCCCCCCCCCCCCCCCCC(=O)O)C(=O)O)C(=O)N[C@@H](CC(N)=O)C(=O)N[C@@H]([C@@H](C)O)C(=O)N[C@@H](C)C(=O)N[C@@H]([C@@H](C)O)C(=O)N1)[C@@H](C)O)C(=O)N1CCC[C@H]1C(=O)N[C@@H](CO)C(=O)N[C@@H](CO)C(=O)N[C@H](C(=O)N[C@@H](CC(N)=O)C(=O)N[C@H](C(=O)NCC(=O)N[C@@H](CO)C(=O)N[C@@H](Cc1c[nH]cn1)C(=O)N[C@H](C(=O)N[C@@H](Cc1ccc(O)cc1)C(N)=O)[C@@H](C)O)C(C)C)[C@@H](C)O, modifications are with respect to human amylin; also called compound 45)
3 |  |  |  |  | 10.9 | 130 | 0.084 | K([AEEA-γGlu-C20 diacid])CNTATCATQRLANFLRHSSPNFGAIPPSTPVGSNTY-NH2 (disulfide 2-7, Acylated analogue of human amylin; also called compound 53)
